Assay results from patent US20220034884A1 (GOVERNMENT OF THE UNITED STATES OF AMERICA AS REPRESENTED …, published 2022).

Biological target: T1, C-terminal GFP-tagged ACE2 fusion protein stably expressed on HEK293T cells (ACE2-GFP HEK293T) (UniProt Q9BYF1 18-805)
T1 construct: also called ACE2-GFP HEK293T clone 2; ACE2-GFP HEK293T clone 1
Assay: live-cell confocal imaging of ACE2-GFP HEK293T cells

T1 sequence (Q9BYF1 18-805): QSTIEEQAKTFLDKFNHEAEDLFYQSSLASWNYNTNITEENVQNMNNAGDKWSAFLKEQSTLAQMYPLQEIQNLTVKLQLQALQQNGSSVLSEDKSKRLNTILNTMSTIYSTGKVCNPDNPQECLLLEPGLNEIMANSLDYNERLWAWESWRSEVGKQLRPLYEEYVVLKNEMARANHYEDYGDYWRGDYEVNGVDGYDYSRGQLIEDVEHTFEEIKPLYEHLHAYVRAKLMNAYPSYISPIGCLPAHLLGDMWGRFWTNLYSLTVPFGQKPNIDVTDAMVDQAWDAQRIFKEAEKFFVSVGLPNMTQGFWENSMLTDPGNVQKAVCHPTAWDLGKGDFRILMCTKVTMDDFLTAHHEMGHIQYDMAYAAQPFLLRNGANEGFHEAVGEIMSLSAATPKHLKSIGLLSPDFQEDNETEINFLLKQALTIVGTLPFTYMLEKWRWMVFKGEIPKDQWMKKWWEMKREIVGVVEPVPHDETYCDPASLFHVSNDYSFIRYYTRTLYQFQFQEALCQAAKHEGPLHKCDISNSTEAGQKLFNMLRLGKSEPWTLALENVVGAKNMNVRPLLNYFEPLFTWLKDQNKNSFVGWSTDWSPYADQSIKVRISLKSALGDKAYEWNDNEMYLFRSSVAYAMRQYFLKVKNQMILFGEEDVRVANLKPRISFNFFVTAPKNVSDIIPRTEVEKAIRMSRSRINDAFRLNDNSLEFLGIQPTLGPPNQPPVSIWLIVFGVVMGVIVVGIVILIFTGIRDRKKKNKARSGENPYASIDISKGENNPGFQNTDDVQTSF

B1: SARS-CoV [change] (40150-V08B1) (ligand)
chain: not shown
  binding result: binds
